Assay results reported in the nanobody polyreactivity screen of Harvey et al. (2022).

Assay: yeast display, Sf9 membrane polyspecificity reagent, FACS + sequencing; frameworks hold sequencing errors
How it was run: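 A nanobody's polyreactivity label depends on the gate it was sorted from. Yeast display cells were stained with 10% biotinylated, detergent-solubilized Sf9 membrane reagent for 1 hour at 4 °C, enriched on streptavidin microbeads and sorted by FACS. The low and high (top ~1%) gates were set on anti-HA fluorescence for expression and streptavidin fluorescence for reagent binding.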

Sequence	polyreactivity (PSR sort gate)
QVQLVESGGGLVQAGGSLRLSCAASGSILGQNGMGWYRQAPWKERELVAGITWSGGSTYYADSVKGRFTISRDNAKNTVYLQMNSLKPEDTAVYYCARRGYYAPYYYWGQGTQVTVSS	high polyreactivity
QVQLVESGGGLVQAGGSLRLSCAASGSILGQYTMGWYRQAPGKERELVAGISSGGSTNYADSVKGRFTISRDNAKNTVYLQMNSLKPEDTAVYYCNKDGAFHWVGSDPVYLFEYWGQGTQVTVSS	low polyreactivity
QVQLVESGGGLVQAGGSLRLSCAASGSILGSNVMGWYRQAPGKERELVAAITSGDSTNYADSVKGRFTISRDNAKNTVYLQMNSLKPEDTAVYYCAKPYSVAPAAVLNWYLGYEYWGQGTQVTVSS	low polyreactivity
QVQLVESGGGLVQAGGSLRLSCAASGSILGYYAMGWYRQEPGKERELVAAISGRGGSTYYADSVKGRFTISRDNAKNSVYLHMNSLKPEDTAVYYCAVVWGSYYWGQGGGEYWGQGTQVTVSS	high polyreactivity
QVQLVESGGGLVQAGGSLRLSCAASGSILHLYAMGWYRQAPGKERELVARINSGGTTNYADSVKGRFTISRDNAKNTVYLQMNSLKPEDTAVYYCAARFTPYITSDVGHYDYWGQGTQVTVSS	low polyreactivity
QVQLVESGGGLVQAGGSLRLSCAASGSILKFNAMGWNRQAPGKERELVAAITRGTNTYYADSVKGRFTISRDNAKNTVYLQMNTLKPEDTAVYYCAARLPYNAIGYYYWGQGTQVTVSS	low polyreactivity
QVQLVESGGGLVQAGGSLRLSCAASGSILKFNAMGWYRQAPGKERELVAAITRGTNTYYADSVKGRFTISRDNANNTFFLQMNSLKPEDTAVYYCAARLPYNAIGYYYWGQGTQVTVSS	low polyreactivity
QVQLVESGGGLVQAGGSLRLSCAASGSILLRNAMGWYRQAPGKERELVAAISRDGGSTYADSVKGRFTISRDNAKNTVYLQMNSLKPEDTAVYYCAKRSYWYDYWGQGTQVTVSS	high polyreactivity
QVQLVESGGGLVQAGGSLRLSCAASGSILLRYAMGWYRQAPGKERELVAAISYDGGGTYYADSVKGRFTISRDNAKNTVYLQMNSLKPEDTAVYYCAADGYSSSGTAYDYWGQGTQVTVSS	low polyreactivity
QVQLVESGGGLVQAGGSLRLSCAASGSILLYYVMGWYRQAPGKERELVAGISSSGRTYYADSVKGRFTISRDNAKNTVYLQMNSLKPEDTAVYYSAKKYWRGDVRVGYWGQGTQVTVSS	high polyreactivity
QVQLVESGGGLVQAGGSLRLSCAASGSILPGNAMGWYRQAPGKEREFVAAISKSGGRTNYADSVKGRFTISRDNAKNTVYLQMNSLKPEDTAVYYCAARRSTGYGKSNLYNYWGQGTQVTVSS	high polyreactivity
QVQLVESGGGLVQAGGSLRLSCAASGSILPYYAMGWYRQAQGKERELLATITDGTDTYYADSVKGRFTISRDNAKNTVYLPMNSLKPEDTAVYYCNADGYVYYLHEDYWGQGTQVTVSS	low polyreactivity
QVQLVESGGGLVQAGGSLRLSCAASGSILQHYAMGWYRQAPGKERELVASISWTGGSTYYADSVKGRFTISRDNAKNTVYLQMNSLKPEDTAVYYCAARRYRYYSRGSWGQGTQVTVSS	high polyreactivity
QVQLVESGGGLVQAGGSLRLSCAASGSILQPIYAMGWYRQAPGKERELVAAISASGGSTYYADSVKGRFTISRDNAKNTVYLQMNSLKPEDTAVYYCNKVGYYASVLGYDYWGQGTQVTVSS	high polyreactivity
QVQLVESGGGLVQAGGSLRLSCAASGSILRKYAMGWYRQAPGKERELVAAISWSGGSTYYADSVKGRFTISRDNAKNTVYVQMNSLKPEDTAVYYCNRDGLSRPYYYWGQGTQVTVSS	high polyreactivity
QVQLVESGGGLVQAGGSLRLSCAASGSILRSNAMGWYRQAPGKERELVAAITFNGGSTYADSVKGRFTISRDNAKNTVYLQMNSLKPEDTAVYYCATGDGPSLFDYWGQGTQVTVSS	low polyreactivity
QVQLVESGGGLVQAGGSLRLSCAASGSILRYYAKGWYRQAPGKERELVASINWSGGSTYYADSVKGRFTISRDNAKNTVYLQMNSLKPEDTAVYYCAARRRSAEYNYWGQGTQVTVSS	high polyreactivity
QVQLVESGGGLVQAGGSLRLSCAASGSILSAYDMGLYRKAPGKDRELVAAIHSSGGSTYYADSVKGRFTISRDNAKNTVYLQMNSLKPEDTAVYYCAATSLAGYYQFDYWGQGTQVTVSS	low polyreactivity
QVQLVESGGGLVQAGGSLRLSCAASGSILSFNAMGWDRQAPGNERELVAAISRGGSTNYADSVKGRFTISRDNAKNTVYLQMNSLKPEDTAVYYCAAVQYRYSTRWARRAYDYWGQGTQVTVSS	high polyreactivity
QVQLVESGGGLVQAGGSLRLSCAASGSILSPYAMGWYRQAPGKERELVAAISRSGDRTYYADSVKGRFTISRDNAKNTVYLQMNSLKPEDTAVYYCAAEYSWPWDYYYWGQGTQVTVSS	high polyreactivity
QVQLVESGGGLVQAGGSLRLSCAASGSILTDNAMGWYRQAPGKERELVASITGSGGSTYYADSVKGRFTISRDNAKNSVYLQMNSLKRVDTAVYYCAASYRLRYGYWGQGTQVTVSS	high polyreactivity
QVQLVESGGGLVQAGGSLRLSCAASGSILTENAMGWYRQAPGKERELVAAISRSGGRTYYADSVKGRFTISRDNAKNTVYLQMNSLKPEDTAVYYCAAEYWTVGYYYSLESDYWGQGTQVTVSS	low polyreactivity

Sequence	polyreactivity (PSR sort gate)
QVQLVESGGGLVQAGGSLRLSCAASGSILTFYAMGWYRQAPGKERELVAAITWRGGSTYYAYSVKGRFTISRDNAKNTVYLQMNSLKPEDTAVYYCAAEQVGYYLNWRDYWGQGTQVTVSS	high polyreactivity
QVQLVESGGGLVQAGGSLRLSCAASGSILTPNAMGWYRQAPGKERELVATISKGGGRTYYADSVKGRFTISRDNAKNTVYLQMNSLKPEDTAVYYCAADARRNSPGNYWGQGTQVTVSS	high polyreactivity
QVQLVESGGGLVQAGGSLRLSCAASGSILTPYAMGWYRQAPGKERELVAAISWGDGSTYYADSVKGRFTISRDNAKNTVYLQMNSLKPEDTAVYYCAAVSYYGVDQYRITVYTYEYWGQGTQVTVSS	low polyreactivity
QVQLVESGGGLVQAGGSLRLSCAASGSILTYYAMGWYRQAPGKERELVAAINNIGGSTYYADSVKGRFTISRDNAKNTVYLQMNSLKPEDTAVYYCAKYYAWPYDYWGQGTQVTVSS	low polyreactivity
QVQLVESGGGLVQAGGSLRLSCAASGSILVNAIGWYRQAPGKEREFVAAISSGGSTKYADSVKGRFTMSRDNATNTDYLLMNSLKPEDTEVYYCAARVVTSRLSGGTTHPFILYYWGQGTQVTVSS	high polyreactivity
QVQLVESGGGLVQAGGSLRLSCAASGSILVPNAMGWYRQAPGKERELVAGISANGGSTYYADSVKGRFTISRDNANNTVYLQMNSLKPEDTAVYYCNARLYWDWYGDDYWVQGTQVTVSS	low polyreactivity
QVQLVESGGGLVQAGGSLRLSCAASGSILWYNGLGWYRQAPGKEMELVAAITSGGSTNYADSVKGRFTISRDNAKNTVYLQMNSLKQEDTAVYYCATRHSKYGYEYDYWGQGTQVTVSS	low polyreactivity
QVQLVESGGGLVQAGGSLRLSCAASGSILWYYAMGWDRQAPGKERELVATITSGGSTYYADSVKGRFTISRDNAKNSVYLQMNSLKPEDTAVYYCNADLAVDEYDYWGQGTQVTVSS	low polyreactivity
QVQLVESGGGLVQAGGSLRLSCAASGSILYGNAMGWYRQAPGKERELVAAISWRGGRTYYADSVKGRFTISRDNAKNTVYLQMNSLKPEDTAVYYCAAQIGLVSGRDYWGQGTQVTVSS	high polyreactivity
QVQLVESGGGLVQAGGSLRLSCAASGSILYGNDMGWYRQAPGKERELVANITSSDSTYYADSVKGRFTISRDNAKNTVYLQMNSLKPEDTAVYYCASDDVGWGYYVYSYPYDYWGQGTQVNVSS	low polyreactivity
QVQLVESGGGLVQAGGSLRLSCAASGSILYLNAMGWYRQAPGKERELVASISSSGGNTYYADSVTGRFTISRDNAKNTVYFQMNSLKPEDTAVYYCNTRWVHRDWYDYWGQGTQVTVSS	high polyreactivity
QVQLVESGGGLVQAGGSLRLSCAASGSILYLNAMGWYRQAPGKERELVATISNGGSTNYADSVKGRFTISRDNAKNTVYLQMNSLKPEDTAVYYCAAASGGTVVGEGDYWGQGTQVTVSS	low polyreactivity
QVQLVESGGGLVQAGGSLRLSCAASGSILYPNAMGWYRQAPGKERELVAAISTSGGSTYYADSVKGRFTLSRDNAKNTVYLQMNSLKPEDTAVYYCAKGWIYYSTWISEYWGQGTQVTVSS	low polyreactivity
QVQLVESGGGLVQAGGSLRLSCAASGSILYRYTMGWYRLAPGTERELVAAITKRGGRTYYADSVKGRITISRDNAMNTVYLQMNSLKPEDTAVFYCYALLTGGYQDSYPDDYWGQGTHVTVSS	high polyreactivity
QVQLVESGGGLVQAGGSLRLSCAASGSILYRYTMGWYRPAPGKERELVAAITKRGGRTYYADSVKGRFTISRDNAKNTVYLQMNSLKPEDTAVYYCAAKYYTGGSFEMYYGGQGTQVTVSS	high polyreactivity
QVQLVESGGGLVQAGGSLRLSCAASGSILYYYVMGWYRQAPGKERELVAAITSGGSTYYADSVKGRFTISRDNAKYTVYFQMIILKPEDTAVFYCAVGYVLTGVFQARFDYWGQGTQVNVSS	high polyreactivity
QVQLVESGGGLVQAGGSLRLSCAASGSIMGWYRQAPGKERELVAAISRGGSTYYADSVKGRFTISRDNAKNTVYLQMNSLKPEDTAVYYCAAKTGGSRSRFEYWGQGTQVTVSS	high polyreactivity
QVQLVESGGGLVQAGGSLRLSCAASGSIRSYAMGWYRQAPGKERELVAAITRSGGSTYYADSVKGRFTISRDNAKITVYLQMNSLKPEDTAFYYCAARYTYSYPLFGSWGQGTQVTVSS	high polyreactivity
QVQLVESGGGLVQAGGSLRLSCAASGSIRSYAMGWYRQAPGKERELVAAITRSGGSTYYADSVKGRFTISRDNAMNTVYLQMNSLKPEDTAVYYCAARYTYSYPLFGSWGQGTQVTVSS	high polyreactivity
QVQLVESGGGLVQAGGSLRLSCAASGSIRYYAMGWYRPAPGKERELVAGITRNGGSTYYADSVKGRFTISRDNAKNTVYLQMNSLKPEDTAVYYCAAGFTTRRGEYNYWGQGTQVTVSS	high polyreactivity
QVQLVESGGGLVQAGGSLRLSCAASGSIRYYAMGWYRQAPGKERELVAAISSRGTNTYYADSVKGRFTISRDNAKNTVYLQMNSLKPEDTAVYYCIAVVGLGYNYWGQGTQVTVSS	high polyreactivity
